Reference: US20240025992A1 (Janssen / Centocor, published 2024)
One block for each binder: values may come before it.

B2: DL3W35, extracellular domain of human DLL3 linked to a C-terminal 6xHis-Tag and a linker (ligand)
chain: AGVFELQIHSFGPGPGPGAPRSPCSARLPCRLFFRVCLKPGLSEEAAESPCALGAALSARGPVYTEQPGAPAPDLPLPDGLLQVPFRDAWPGTFSFIIETWREELGDQIGGPAWSLLARVAGRRRLAAGGPWARDIQRAGAWELRFSYRARCEPPAVGTACTRLCRPRSAPSRCGPGLRPCAPLEDECEAPLVCRAGCSPEHGFCEQPGECRCLEGWTGPLCTVPVSTSSCLSPRGPSSATTGCLVPGPGPCDGNPCANGGSCSETPRSFECTCPRGFYGLRCEVSGVTCADGPCFNGGLCVGGADPDSAYICHCPPGFQGSNCEKRVDRCSLQPCRNGGLCLDLGHALRCRCRAGFAGPRCEHDLDDCAGRACANGGTCVEGGGAHRCSCALGFGGRDCRERADPCAARPCAHGGRCYAHFSGLVCACAPGYMGARCEFPVHPDGASALPAAHPGGGSGGGSGGGSHHHHHH
notes: also called human DLL3 ECD; huDLL3
B3: DL3W34, human DLL4 ECD (Ser27-Pro524), C-10xHis (ligand)
chain: SGVFQLQLQEFINERGVLASGRPCEPGCRTFFRVCLKHFQAVVSPGPCTFGTVSTPVLGTNSFAVRDDSSGGGRNPLQLPFNFTWPGTFSLIIEAWHAPGDDLRPEALPPDALISKIAIQGSLAVGQNWLLDEQTSTLTRLRYSYRVICSDNYYGDNCSRLCKKRNDHFGHYVCQPDGNLSCLPGWTGEYCQQPICLSGCHEQNGYCSKPAECLCRPGWQGRLCNECIPHNGCRHGTCSTPWQCTCDEGWGGLFCDQDLNYCTHHSPCKNGATCSNSGQRSYTCTCRPGYTGVDCELELSECDSNPCRNGGSCKDQEDGYHCLCPPGYYGLHCEHSTLSCADSPCFNGGSCRERNQGANYACECPPNFTGSNCEKKVDRCTSNPCANGGQCLNRGPSRMCRCRPGFTGTYCELHVSDCARNPCAHGGTCHDLENGLMCTCPAGFSGRRCEVRTSIDACASSPCFNRATCYTDLSTDTFVCNCPYGFVGSRCEFPVGLPHHHHHHHHHH
notes: also called huDLL4; TPP0000494661
B5: DL3W33, Recombinant Human DLL1 ECD (Ser22-Gly540), -DI-C-6xHis (ligand)
chain: SGVFELKLQEFVNKKGLLGNRNCCRGGAGPPPCACRTFFRVCLKHYQASVSPEPPCTYGSAVTPVLGVDSFSLPDGGGADSAFSNPIRFPFGFTWPGTFSLIIEALHTDSPDDLATENPERLISRLATQRHLTVGEEWSQDLHSSGRTDLKYSYRFVCDEHYYGEGCSVFCRPRDDAFGHFTCGERGEKVCNPGWKGPYCTEPICLPGCDEQHGFCDKPGECKCRVGWQGRYCDECIRYPGCLHGTCQQPWQCNCQEGWGGLFCNQDLNYCTHHKPCKNGATCTNTGQGSYTCSCRPGYTGATCELGIDECDPSPCKNGGSCTDLENSYSCTCPPGFYGKICELSAMTCADGPCFNGGRCSDSPDGGYSCRCPVGYSGFNCEKKIDYCSSSPCSNGAKCVDLGDAYLCRCQAGFSGRHCDDNVDDCASSPCANGGTCRDGVNDFSCTCPPGYTGRNCSAPVSRCEHAPCHNGATCHERGHGYVCECARGYGGPNCQFLLPELPPGPAVVDLTEKLEGQGDIHHHHHH
notes: also called huDLL1; TPP000049465

Legend:
[1] = target: T1, DL3W36, human DLL3 EGF6 domain+C-term ECD sequence, HSA Fusion and C-term 6 His tag (human); assay: MSD plate binding assay on coated DLL3 domain-HSA fusions
T1 construct: Fusion with the C34S variant of human serum albumin, plus 6xHis; also called EGF-6 and C-terminal fusion domain; EGF6 + Cterm
T1 sequence (chain, as listed by the source limits assumed): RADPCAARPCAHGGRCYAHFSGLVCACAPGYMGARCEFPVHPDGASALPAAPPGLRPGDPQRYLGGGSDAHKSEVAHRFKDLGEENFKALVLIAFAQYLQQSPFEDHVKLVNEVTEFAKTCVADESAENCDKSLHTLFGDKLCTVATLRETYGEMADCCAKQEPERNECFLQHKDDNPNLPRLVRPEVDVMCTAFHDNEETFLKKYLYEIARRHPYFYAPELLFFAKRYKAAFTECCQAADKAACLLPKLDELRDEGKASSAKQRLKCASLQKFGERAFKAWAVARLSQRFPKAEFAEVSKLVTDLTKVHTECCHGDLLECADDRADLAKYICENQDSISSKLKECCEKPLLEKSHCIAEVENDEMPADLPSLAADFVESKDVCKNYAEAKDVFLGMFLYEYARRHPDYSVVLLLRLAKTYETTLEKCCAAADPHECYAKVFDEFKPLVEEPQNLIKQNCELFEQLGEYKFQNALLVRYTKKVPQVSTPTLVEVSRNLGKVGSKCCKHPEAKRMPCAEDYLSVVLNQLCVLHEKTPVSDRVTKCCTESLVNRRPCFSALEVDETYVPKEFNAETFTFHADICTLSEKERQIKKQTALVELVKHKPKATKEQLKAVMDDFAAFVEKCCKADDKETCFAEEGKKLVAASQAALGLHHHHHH
Description: The plates were washed with PBS with 0.1% Tween and then blocked with Starting block solution for 30 minutes. […] Antigen bound antibody was detected with sulfo-tagged anti-human antibody (Meso Scale Discovery, R32AJ) for 60 minutes at ambient temperature followed by another PBS wash. Signal acquisition was done in the presence of 1× MSD read buffer T (MSD, Cat #R92TC-1) on the MSD Sector 600 imager with appropriate plate settings. Data was analyzed for the highest binding signal per domain indicating the preferential domain binding.

[2] = target: B2; assay: SPR (ProteOn), antibody captured by anti-Fc, DLL3 (DL3W35) titrated
Description: (§1) The association and dissociation were monitored for 5 and 30 minutes, respectively, using a flow rate of 50 μL/min. Kinetic information (on-rate and off-rate constants) were extracted by fitting sensorgrams to the 1:1 Langmuir binding model. Binding affinity (KD) are reported as the ratio of rate constants (koff/kon).

[3] = target: B5; assay: SPR (ProteOn), antibody captured by anti-Fc; DLL1 at 100 nM and 1000 nM
Description: as §1

[4] = target: B3; assay: SPR (ProteOn), antibody captured by anti-Fc; DLL4 at 100 nM and 1000 nM
Description: as §1

DL3B574 [5] = target: T2, DL3B574; assay: SPR (ProteOn), antibody captured by anti-Fc, DLL3 (DL3W35) titrated
T2 construct: also called DL3B450 scFv-Fc; not shown: wild-type IgG1 Fc domain

DL3B574 [6] = target: T2, DL3B574; assay: SPR (ProteOn), antibody captured by anti-Fc; DLL4 at 100 nM and 1000 nM
Description: as §1

[7] = target: T3, CD3W147, homodimeric CD3εγ-Fc (biotinylated); assay: ELISA, biotinylated CD3W147 immobilized, scFv in E. coli supernatant
T3 construct: also called recombinant CD3; biotinylated CD3W147
T3 chain: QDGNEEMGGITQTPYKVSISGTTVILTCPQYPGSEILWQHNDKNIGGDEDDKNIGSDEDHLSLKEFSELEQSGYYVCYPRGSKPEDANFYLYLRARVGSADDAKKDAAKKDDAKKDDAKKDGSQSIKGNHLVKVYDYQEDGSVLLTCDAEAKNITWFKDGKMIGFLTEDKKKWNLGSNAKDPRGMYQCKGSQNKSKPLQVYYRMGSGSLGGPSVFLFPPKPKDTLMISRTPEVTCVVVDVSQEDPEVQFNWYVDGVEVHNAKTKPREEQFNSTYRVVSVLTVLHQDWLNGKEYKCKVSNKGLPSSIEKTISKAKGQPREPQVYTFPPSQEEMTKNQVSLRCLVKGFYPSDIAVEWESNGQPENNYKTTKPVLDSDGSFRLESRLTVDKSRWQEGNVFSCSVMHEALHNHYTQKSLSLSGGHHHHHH
Description: Protein expression was induced by addition of 1 mM IPTG and cultures were grown overnight. After expression, cells were pelleted by centrifugation at 2,200×g for 5 min and supernatants were collected and tested directly for binding to biotinylated CD3W147 by ELISA.
Biotinylated CD3W147 was immobilized on the plate in concentrations ranging from 0.039 μg/mL to 2.5 μg/mL in 2-fold dilutions followed by incubation at room temperature for 45 min. Bound scFv was detected using chicken anti-HA-horseradish peroxidase and then detected with chemiluminescence substrate.

DL3B574 [8] = target: T2, DL3B574; assay: SPR (ProteOn), antibody captured by anti-Fc; DLL1 at 100 nM and 1000 nM
Description: as §1

binding result [1]: binds | Kd [2]: 0.31 nM | binding result [3]: no binding (tested: 1000 nM) | binding result [4]: no binding (tested: 1000 nM)
B1: DL3B575 (Fc fusion)
scFv: DIVMTQSPLSSPVTLGQPASISCRSSQSLVHSDGNTYLNWLQQRPGQPPRLLIYQISNPFSGVPDRFSGSGAGTDFTLKISRVEAEDVGVYYCMQATQFPHTFGPGTKVEIKGGSEGKSSGSGSESKSTGGSQVQLVQSGAEVKKPGSSVKVSCKASGGTLSSYVISWVRQAPGQGLEWMGGIIPIFGTANYAQKFQDRVTITADKSTNTAYMELTSLTSEDTAVYYCARDPFSDLWGRGTMVTVSS
notes: also called DL3B461 scFv-Fc; not shown: wild-type IgG1 Fc domain

Binder: B2
Kd (DL3B574 [5]): 2.37 nM

Binder: B3
binding result (DL3B574 [6]): no binding (tested: 1000 nM)

binding result [7]: binds
B4: CD3W245-HL-E.c. (scFv)
scFv: EVQLVESGGGLVKPGGSLRLSCAASGFTFSRYNMNWVRQAPGKGLEWVSSISTSSNYIYYADSVKGRFTFSRDNAKNSLDLQMSGLRAEDTAIYYCTRGWGPFDYWGQGTLVTVSSGTEGKSSGSGSESKSTDIQMTQSPSSLSASVGDRVTITCRARQSIGTAIHWYQQKPGKAPKLLIKYASESISGVPSRFSGSGSGTDFTLTISSLQPEDFATYYCQQSGSWPYTFGQGTKLEIKGPGGQHHHHHHGAYPYDVPDYAS
notes: Tested as E. coli supernatant; also called CD3W245 scFv-HL; CD3W245 scFv HL expressed in E. coli

Binder: B5
binding result (DL3B574 [8]): no binding (tested: 1000 nM)
